Reference: patent US20080267949A1, “Peptides capable of binding to serum proteins” (Ablynx N.V., priority 2006, published 2008)
Ends that are not written are not given here. c2 linker = not defined here

Columns and labels:
[1] = biological target: T1, mouse serum albumin (mouse, UniProt P07724 25-608); assay: phage binding assay on coated Maxisorp wells, 5 phage dilutions per peptide, Odyssey image
T1 construct: also called MSA
Experimental: (§1) Binding of 17D12, as selected from primary screening after 2 selection rounds on HSA, to serum albumin of different species [mouse serum albumin (MSA, A3559, Sigma), cynomolgus serum albumin (CSA, in-house production), bovine serum albumin (BSA, A6003, Sigma) and HSA] and to negative control antigens [ovalbumin, human tumor necrosis factor α (TNF, in-house production)] was assessed using different phage concentrations. Additionally, similar binding studies were performed with two truncated variants of 17D12. Both peptides, i.e. 17D12-CDR3-NC (SEQ ID NO: 26) and 17D12-CDR3-C (SEQ ID NO;27), lack the flanking FR residues of 17D12 and the former is a non-constrained loop, whereas the latter is constrained (FIG. 4).
(§2) The phage binding assay was performed essentially as described in example 4. Full length 17D12 peptide as well as truncated peptides, 17D12-CDR3-NC and 17D12-CDR3-C, bind dose-dependently to HSA and CSA, whereas reactivity to MSA and BSA was not apparent in the assay performed (FIG. 6). There is no significant non-specific binding of 17D12 and 17D12-CDR3-NC to irrelevant proteins tested (ovalbumin and TNF). In contrast, there is a subtle degree of non-specific binding with the constrained truncated peptide.

[2] = biological target: T2, bovine serum albumin (bovine, UniProt P02769 25-607); assay: as above
T2 construct: also called BSA
T2 sequence (P02769 25-607 limits assumed): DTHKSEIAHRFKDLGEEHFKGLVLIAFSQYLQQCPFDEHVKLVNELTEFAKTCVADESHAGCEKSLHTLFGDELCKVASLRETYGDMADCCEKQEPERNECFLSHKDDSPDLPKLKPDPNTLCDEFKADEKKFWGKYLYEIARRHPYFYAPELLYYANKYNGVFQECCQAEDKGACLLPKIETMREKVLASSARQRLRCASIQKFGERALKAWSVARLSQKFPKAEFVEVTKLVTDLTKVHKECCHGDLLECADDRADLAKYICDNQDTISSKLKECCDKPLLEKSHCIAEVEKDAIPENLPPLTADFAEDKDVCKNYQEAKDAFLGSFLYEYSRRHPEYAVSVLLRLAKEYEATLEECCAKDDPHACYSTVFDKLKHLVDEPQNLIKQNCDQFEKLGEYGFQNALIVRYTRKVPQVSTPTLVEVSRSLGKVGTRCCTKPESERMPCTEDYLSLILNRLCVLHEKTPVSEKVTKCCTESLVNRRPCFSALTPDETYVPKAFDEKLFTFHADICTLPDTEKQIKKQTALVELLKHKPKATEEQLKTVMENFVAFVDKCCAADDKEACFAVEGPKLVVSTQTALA
Experimental: as §1, §2

[3] = biological target: T3, human tumor necrosis factor α (human, UniProt P01375 77-233); assay: as above
T3 construct: Negative control antigen; also called TNF
T3 sequence (P01375 77-233 limits assumed): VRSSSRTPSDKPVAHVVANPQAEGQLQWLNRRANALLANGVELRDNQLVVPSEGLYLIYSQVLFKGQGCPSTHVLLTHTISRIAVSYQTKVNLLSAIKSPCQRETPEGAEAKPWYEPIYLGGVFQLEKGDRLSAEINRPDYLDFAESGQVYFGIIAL
Experimental: as §1, §2

[4] = biological target: T4, cynomolgus serum albumin (cynomolgus, UniProt A2V9Z4 25-608); assay: phage binding assay on coated Maxisorp wells, 5 phage dilutions per peptide (concentrations not given), Odyssey image
T4 construct: also called CSA; cynoSA
T4 sequence (A2V9Z4 25-608 limits assumed): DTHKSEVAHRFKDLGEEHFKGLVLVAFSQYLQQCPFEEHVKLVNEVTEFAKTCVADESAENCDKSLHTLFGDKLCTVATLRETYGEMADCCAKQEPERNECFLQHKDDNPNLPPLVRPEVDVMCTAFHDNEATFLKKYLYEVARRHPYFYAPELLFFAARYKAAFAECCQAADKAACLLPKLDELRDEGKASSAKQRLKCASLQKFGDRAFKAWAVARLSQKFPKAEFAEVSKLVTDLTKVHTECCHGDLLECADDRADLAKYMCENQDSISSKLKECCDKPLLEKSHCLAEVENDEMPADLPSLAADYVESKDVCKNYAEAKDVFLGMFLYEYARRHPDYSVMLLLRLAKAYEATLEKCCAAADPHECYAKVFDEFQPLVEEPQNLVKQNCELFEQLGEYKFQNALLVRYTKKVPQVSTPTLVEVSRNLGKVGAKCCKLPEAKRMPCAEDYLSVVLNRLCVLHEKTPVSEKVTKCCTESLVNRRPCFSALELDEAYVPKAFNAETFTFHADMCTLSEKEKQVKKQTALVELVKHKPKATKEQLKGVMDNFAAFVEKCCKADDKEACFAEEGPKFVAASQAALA
Experimental: as §1, §2

[5] = biological target: T5, ovalbumin (negative control antigen) (UniProt P01012 2-386); assay: phage binding assay: ovalbumin coated on Maxisorp, M13 phage in 1/2 dilution series from 10^12 phages/mL, Odyssey intensity
T5 construct: Bought protein
T5 sequence (looked up): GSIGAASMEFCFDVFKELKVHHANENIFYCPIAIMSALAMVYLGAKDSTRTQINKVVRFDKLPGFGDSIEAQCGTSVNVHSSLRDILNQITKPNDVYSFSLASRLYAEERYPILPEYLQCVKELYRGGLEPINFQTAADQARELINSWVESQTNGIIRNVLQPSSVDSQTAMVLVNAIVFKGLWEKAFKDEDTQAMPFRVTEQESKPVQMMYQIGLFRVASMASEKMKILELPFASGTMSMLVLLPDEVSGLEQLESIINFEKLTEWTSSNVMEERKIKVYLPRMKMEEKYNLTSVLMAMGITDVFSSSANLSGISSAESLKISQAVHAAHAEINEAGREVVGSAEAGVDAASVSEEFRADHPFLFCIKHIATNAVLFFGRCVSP
Experimental: The phage binding assay to HSA and ovalbumin was performed essentially as described in example 4. Phages, produced in 10 mL culture volume, were incubated on both HSA and ovalbumin in a ½ dilution series, starting with 10¹² phages/mL. Dose-dependent binding to HSA was retained upon fusion of the peptide 17D12 at the C-terminus of a non-albumin binding intact VHH in the presence or absence of a GlySer linker (FIG. 9).

[6] = biological target: T6, human serum albumin (human, UniProt P02768 25-609); assay: phage binding assay: 10 µg/mL HSA coated on Maxisorp, M13 phage displaying the peptide on pIII in 1/2 dilution series, anti-M13 + goat anti-mouse IRDye700, Odyssey intensity
T6 construct: Bought protein; also called HSA
Experimental: After two selection rounds, monoclonal phage were screened for binding on HSA versus negative control antigen, ovalbumin (A5378, Sigma). Wells of a Maxisorp microtiter plate (Nunc) were coated using 10 μg/mL HSA or ovalbumin and blocked with SuperBlock T20 PBS Blocking Buffer (Pierce) to prevent non-specific binding. Phages, produced in 96-well plate, were diluted 1/10 in 1:1 (v:v) Superblock T20 PBS Blocking Buffer:PBS+0.05% Tween-20 and incubated on both HSA and ovalbumin. Bound phages were detected using anti-M13 (GE Healthcare) and goat anti-mouse IRDye700 (Rockland) and signals were read-out on Odyssey (LI-COR Biosciences). […] This peptide is referred to as 17D12. Its full amino acid sequence is given in SEQ ID NO: 1, and its encoding nucleotide sequence is given in SEQ ID NO:2. The amino acid sequence of the CDR3 loop is given in SEQ ID NO:3.
The phage binding assay was performed essentially as described in example 3. Phages, produced in 10 mL culture volume, were incubated on both HSA and ovalbumin in a ½ dilution series, starting with 7.5×10¹¹ phages/mL. […] Non-specific binding to ovalbumin is slightly higher for the constrained truncated peptide.

[7] = biological target: T6, human serum albumin; assay: SPR: biotinylated peptide captured on a streptavidin sensorchip, HSA injected for 4 min at 10 µl/min, reference-subtracted
Experimental: Binding of the 2 synthetic peptides Ala-17D12-CDR3 and Cys-Ala-17D12-CDR3 to HSA was assessed by surface plasmon resonance. The biotinylated peptides are each captured on streptavidin-coated sensorchip SA T071122. HSA binding is assessed at various concentrations. The samples were injected for 4 min at a flow rate of 10 ul/min over the activated and reference surfaces to allow for binding to chip-bound antigen. Next, binding buffer without HSA is sent over the chip at the same flow rate to allow for dissociation of bound HSA. After 10 min, remaining bound analyte is removed by injecting regeneration solution (50 mM NaOH).

[8] = biological target: T7, rhErbB2-Fc antigen (R&D Systems) (human, UniProt P04626 23-652); assay: SPR: rhErbB2-Fc on a CM5 chip (~3000 RU), 2D3-17D12 injected alone or pre-incubated with 1 or 5 µM HSA (concentration of 2D3-17D12 not given)
T7 construct: Bought; also called HER2 antigen; Her-2 antigen; not shown: Fc part of the bought fusion; not described
Experimental: (§3) FIG. 11: Surface plasmon resonance analysis of simultaneous binding of 2D3-17D12 fusion protein to HER2 antigen and human serum albumin (HSA). 2D3-17D12 fusion protein was pre-incubated or not with 1 and 5 μM HSA, followed by flow over immobilized 2D3 target antigen, rhErbB2-Fc. The dotted line represents the binding characteristics of 2D3 in presence of 25 μM HSA.

[9] = biological target: T8, human serum albumin (HSA) (Homo sapiens, UniProt P02768); assay type: binding
T8 construct: purchased Sigma A5763
Experimental: FIG. 10: Surface plasmon resonance analysis of the binding of Nanobody® (2D3) and Nanobody® fusion peptide (2D3-17D12) on human serum albumin (HSA). Coating of the chip (CM5) was performed by amine coupling using NHS/EDC for activation and ethanolamine for deactivation (Biacore amine coupling kit). hip coated with 7000 RU human serum albumin (Sigma, 99% pure) and 2500 RU irrelevant protein antigen. 2D3 and 2D3-17D12 was successively injected over the chip in increasing concentrations (1.25 μM, 2.5 μM and 5 μM). HBS-EP was used as flow buffer at a rate of 10 μl min-1.20 μl of sample was injected for 20 s.
The 2D3-17D12 fusion protein […] […] […] (SEQ ID NO: 30) was expressed in E. coli TG1 cells. The fusion protein was purified by IMAC/SEC and binding to HSA was assessed in BIAcore™ 3000. Therefore, a dilution series of 2D3-17D12 fusion protein and 2D3 Nanobody was injected on a CM5 chip coated with high density HSA (7000RU). […] Calculated affinity of 2D3-17D12 for HSA is ˜10 μM.

[10] = system: irrelevant protein; assay: Surface plasmon resonance control on CM5 chip coated with irrelevant protein; assay type: binding; settings: 2.5 μM injected; 2400 RU irrelevant protein
[11] = biological target: T9, rhErbB2-Fc antigen (Homo sapiens, UniProt P04626); assay: Surface plasmon resonance: simultaneous binding to HER2 and HSA, chip coated with rhErbB2-Fc; settings: pre-incubated with HSA (1 and 5 μM); ~3000 RU rhErbB2-Fc
T9 construct: purchased R&D Systems
Experimental: as §3
To examine whether the 2D3 Nanobody and the 17D12 CDR3 can simultaneously bind their respective target antigen (Her-2 antigen for 2D3 Nanobody, albumin for 17D12 CDR3), the following experiment was performed. 2D3-17D12 fusion protein was pre-incubated or not with increasing concentration of HSA and then injected on a CM5 chip coated with rhErbB2-Fc antigen (R&D Systems) at a density of ˜3000 RU.

[12] = biological target: T7, rhErbB2-Fc antigen (R&D Systems); assay: SPR: rhErbB2-Fc on a CM5 chip (~3000 RU), 2D3 injected in the presence of 25 µM HSA (concentration of 2D3 not given)
Experimental: as §3

[13] = biological target: T5, ovalbumin (negative control antigen); assay: phage binding assay on coated Maxisorp wells, 5 phage dilutions per peptide, Odyssey image
Experimental: as §1, §2

T1 sequence (P07724 25-608 limits assumed): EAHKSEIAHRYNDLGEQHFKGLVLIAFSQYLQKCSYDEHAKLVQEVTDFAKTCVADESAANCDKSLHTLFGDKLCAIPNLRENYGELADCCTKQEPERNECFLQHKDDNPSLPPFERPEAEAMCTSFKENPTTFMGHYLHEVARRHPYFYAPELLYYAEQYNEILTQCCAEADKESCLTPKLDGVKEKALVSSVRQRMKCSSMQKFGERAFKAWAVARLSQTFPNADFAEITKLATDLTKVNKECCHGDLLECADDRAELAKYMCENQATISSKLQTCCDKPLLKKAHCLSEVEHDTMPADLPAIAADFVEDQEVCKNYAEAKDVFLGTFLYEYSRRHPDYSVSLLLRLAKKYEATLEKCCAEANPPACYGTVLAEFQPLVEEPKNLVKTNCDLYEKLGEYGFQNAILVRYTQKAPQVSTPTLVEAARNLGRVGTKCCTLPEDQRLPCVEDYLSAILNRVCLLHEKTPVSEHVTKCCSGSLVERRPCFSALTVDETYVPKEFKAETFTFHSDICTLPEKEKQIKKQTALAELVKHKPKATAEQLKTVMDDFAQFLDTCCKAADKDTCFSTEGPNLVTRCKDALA

B1: 17D12 peptide (CDR3 loop with flanking FR3 and FR4 residues), expressed on pIII of M13 phage (peptide)
peptide: DTAVYYCNAAASYSDYDVFGGGTDFGPWGQGTQV
modifications: not fully specified (C-terminus)
notes: also called full length 17D12; not shown: library construct: followed by His6 and c-myc tags, a short Gly-Ala-Ala linker and M13 pIII
[1]
  binding result: no binding
[2]
  binding result: no binding
[3]
  binding result: no binding
[4]
  binding result: binds
[5]
  binding result: no binding (tested: 100 x10^10 phage/mL)
[6]
  EC50 (read off the curve): ~5e+10 phage/mL

B2: Ala-17D12-CDR3 synthetic biotinylated peptide (acetyl-AAASYSDYDVFGGGTDFGP-c2 linker-biotin) (peptide)
peptide: Ac-AAASYSDYDVFGGGTDFGP-{c2 linker-biotin}
modifications: reading uncertain
notes: Captured on a streptavidin-coated sensor chip; HSA injected as analyte; also called PEO-100
[7]
  binding result: binds

B3: 2D3-17D12 fusion protein (other)
chain: EVQLVESGGSLVQPGGSLRLSCAASGFTFDDYAMSWVRQVPGKGLEWVSSINWSGTHTDYADSVKGRFTISRNNANNTLYLQMNSLKSEDTAVYYCAKNWRDAGTTWFEKSGSAGQGTQVTVSSDTAVYYCNAAASYSDYDVFGGGTDFGPWGQGTQVGGGS
notes: Soluble VHH-peptide fusion expressed in E. coli TG1 and purified by IMAC/SEC; also called Nanobody fusion peptide (2D3-17D12)
[8]
  binding result: binds

B4: 2D3-17D12: fusion of HER2-binding VHH 2D3 with HSA-binding peptide 17D12, expressed in E. coli TG1 (protein)
chain: B3 chain
modifications: 2D3-17D12 fusion protein
[9]
  Kd: ~10 µM
[9]; 7000 RU HSA, injected at 1.25, 2.5 and 5 μM
  Binding to HSA (SPR): dose-dependent binding
[10]
  Binding to irrelevant protein (SPR control): no specific binding was detected
[11]
  Off-rates on rhErbB2-Fc, premixed with HSA compared to control injection: slightly higher but comparable off-rates

B5: 2D3 Nanobody (VHH that specifically binds to HER2) (VHH)
VHH: EVQLVESGGSLVQPGGSLRLSCAASGFTFDDYAMSWVRQVPGKGLEWVSSINWSGTHTDYADSVKGRFTISRNNANNTLYLQMNSLKSEDTAVYYCAKNWRDAGTTWFEKSGSAGQGTQVTVSS
notes: also called VHH 2D3
[12]
  binding result: binds

## AAASYSDYDVFGGGTDFGPA (peptide, not shown: large carriers, not fully specified, Tested as phage)
[13]
  binding result: no binding
[1]
  binding result: no binding
[2]
  binding result: no binding
[3]
  binding result: no binding
[4]
  binding result: binds
[6]
  EC50 (read off the curve): ~7e+10 phage/mL

B6: Cys-Ala-17D12-CDR3 synthetic biotinylated peptide (acetyl-CAAASYSDYDVFGGGTDFGP-c2 linker-biotin) (peptide)
peptide: Ac-CAAASYSDYDVFGGGTDFGP-{c2 linker-biotin}
modifications: reading uncertain
notes: Captured on a streptavidin-coated sensor chip; HSA injected as analyte; also called PEO-101.5
[7]
  binding result: binds
